Measured values: patent US12576024B2, “Compositions comprising Propionibacterium acnes bacteriophages for treating acne” (priority 2017, dated 2026)
Entries after “also recorded” stand apart in the source; their conditions may differ.

System: P. acnes biofilms
Experiment: Screen of enzymes that degrade P. acnes biofilms (crystal violet)
Type: cell-based
Details: enzymes 0.01 mg/mL, 30° C., 30 mins
Protocol: FIG. 4. A screen to select enzymes that can degrade P. acnes biofilms. P. acnes was grown in polystyrene microtiter plates to stimulate biofilm production. Enzymes were added at 0.01 mg/mL to the wells and incubated at 30° C. for 30 mins. The degraded biofilm was washed away with phosphate buffered saline (PBS), and the residual biofilm in each well was quantified by staining with crystal violet and recording absorbance at 590 nm.
Without being bound by any scientific theory, we hypothesized that biofilms might present a significant barrier to phage killing of sessile P. acnes cells. […] In order to determine whether biofilm degradation would improve phage killing, a number of enzymes was screened to find a BDE specific for P. acnes. The screen comprised three classes of enzymes that might degrade types of materials that may be found in biofilms: DNA, polysaccharides, and proteins.

B1: proteinase K: protease screened as P. acnes biofilm degrading enzyme (protein, UniProt P06873 106-384, looked up)
Proteinase K: AAQTNAPWGLARISSTSPGTSTYYYDESAGQGSCVYVIDTGIEASHPEFEGRAQMVKTYYYSSRDGNGHGTHCAGTVGSRTYGVAKKTQLFGVKVLDDNGSGQYSTIIAGMDFVASDKNNRNCPKGVVASLSLGGGYSSSVNSAAARLQSSGVMVAVAAGNNNADARNYSPASEPSVCTVGASDRYDRRSSFSNYGSVLDIFGPGTSILSTWIGGSTRSISGTSMATPHVAGLAAYLMTLGKTTAASACRYIADTANKGDLSNIPFGTVNLLAYNNYQA
Question: Which “P. acnes biofilm degradation (residual biofilm, absorbance at 590 nm)” value does the source give for B1 here?
Answer: The value was “good activity”.

B2: dispersin: a glycoside hydrolase from Aggregatibacter actinomycetemcomitans, biofilm degrading enzyme (protein)
chain: MNCCVKGNSIYPQKTSTKQTGLMLDIARHFYSPEVIKSFIDTISLSGGNFLHLHFSDHENYAIESHLLNQRAENAVQGKDGIYINPYTGKPFLSYRQLDDIKAYAKAKGIELIPELDSPNHMTAIFKLVQKDRGVKYLQGLKSRQVDDEIDITNADSITFMQSLMSEVIDIFGDTSQHFHIGGDEFGYSVESNHEFITYANKLSYFLEKKGLKTRMWNDGLIKNTFEQINPNIEITYWSYDGDTQDKNEAAERRDMRVSLPELLAKGFTVLNYNSYYLYIVPKASPTFSQDAAFAAKDVIKNWDLGVWDGRNTKNRVQNTHEIAGAALSIWGEDAKALKDETIQKNTKSLLEAVIHKTNGDE
modifications: Aggregatibacter actinomycetemcomitans
notes: a glycoside hydrolase from Aggregatibacter actinomycetemcomitans, biofilm degrading enzyme
Question: B2 was tested. Which “P. acnes biofilm degradation (residual biofilm, absorbance at 590 nm)” value did it give?
Answer: Its value is “best glycoside depolymerase amongst those tested; also recorded: best rates of biofilm degradation”.
